Patent publication US20230340151A1 (Pfizer, published 2023)

Legend:
Test in all cases: peptide DELFIA ELISA;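 note: epitope mapping using overlapping 20-mer GUCY2C peptides covering residues 1-440, extracellular into transmembrane domain, coated at 20 µg/ml as target antigen and probed with antibodies or GUCY2C-CD3 bispecifics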
GUCY2C_ECD Peptide 14 = target: T1, GUCY2C_ECD Peptide 14 (human)
T1 peptide: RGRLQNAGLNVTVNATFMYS
Experimental: (§1) Arrays were reconstituted with acetonitrile to 100 μg/ml and were then further diluted to 20 μg/ml with sodium carbonate/bicarbonate buffer. Purified antibodies or GUCY2c-CD3 bispecifics were then tested by Delfia ELISA for binding to the different peptides using Delfia ELISA methods previously discussed, with diluted peptides used as the target antigen.

GUCY2C_ECD Peptide 63 = target: T2, GUCY2C_ECD Peptide 63 (human)
T2 peptide: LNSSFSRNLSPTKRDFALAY
Experimental: as §1

GUCY2C_ECD Peptide 69 = target: T3, GUCY2C_ECD Peptide 69 (human)
T3 peptide: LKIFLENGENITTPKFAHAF
Experimental: as §1

GUCY2C_ECD Peptide 71 = target: T4, GUCY2C_ECD Peptide 71 (human)
T4 peptide: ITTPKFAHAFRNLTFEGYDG
Experimental: as §1

GUCY2C_ECD Peptide 16 = target: T5, GUCY2C_ECD Peptide 16 (human)
T5 peptide: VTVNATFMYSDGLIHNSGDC
Experimental: as §1

GUCY2C_ECD Peptide 3 = target: T6, GUCY2C_ECD Peptide 3 (human)
T6 peptide: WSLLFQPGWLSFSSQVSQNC
Experimental: as §1

GUCY2C_ECD Peptide 21 = target: T7, GUCY2C_ECD Peptide 21 (human)
T7 peptide: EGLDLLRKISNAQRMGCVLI
Experimental: as §1

GUCY2C_ECD Peptide 42 = target: T8, GUCY2C_ECD Peptide 42 (human)
T8 peptide: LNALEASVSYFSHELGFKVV
Experimental: as §1

GUCY2C_ECD Peptide 83 = target: T9, GUCY2C_ECD Peptide 83 (human)
T9 peptide: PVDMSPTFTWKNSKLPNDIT
Experimental: as §1

GUCY2C_ECD Peptide 11 = target: T10, GUCY2C_ECD Peptide 11 (human)
T10 peptide: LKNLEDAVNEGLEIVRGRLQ
Experimental: as §1

GUCY2C_ECD Peptide 13 = target: T11, GUCY2C_ECD Peptide 13 (human)
T11 peptide: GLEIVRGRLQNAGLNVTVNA
Experimental: as §1

GUCY2C_ECD Peptide 75 = target: T12, GUCY2C_ECD Peptide 75 (human)
T12 peptide: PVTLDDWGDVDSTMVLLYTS
Experimental: as §1

GUCY2C_ECD Peptide 31 = target: T13, GUCY2C_ECD Peptide 31 (human)
T13 peptide: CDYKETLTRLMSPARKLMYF
Experimental: as §1

GUCY2C_ECD Peptide 10 = target: T14, GUCY2C_ECD Peptide 10 (human)
T14 peptide: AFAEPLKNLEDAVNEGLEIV
Experimental: as §1

GUCY2C_ECD Peptide 9 = target: T15, GUCY2C_ECD Peptide 9 (human)
T15 peptide: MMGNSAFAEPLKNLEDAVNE
Experimental: as §1

GUCY2C_ECD Peptide 49 = target: T16, GUCY2C_ECD Peptide 49 (human)
T16 peptide: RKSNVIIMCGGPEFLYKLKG
Experimental: as §1

GUCY2C_ECD Peptide 60 = target: T17, GUCY2C_ECD Peptide 60 (human)
T17 peptide: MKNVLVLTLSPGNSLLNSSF
Experimental: as §1

GUCY2C_ECD Peptide 17 = target: T18, GUCY2C_ECD Peptide 17 (human)
T18 peptide: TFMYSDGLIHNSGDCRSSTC
Experimental: as §1

GUCY2C_ECD Peptide 38 = target: T19, GUCY2C_ECD Peptide 38 (human)
T19 peptide: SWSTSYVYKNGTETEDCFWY
Experimental: as §1

GUCY2C_ECD Peptide 1 = target: T20, GUCY2C_ECD Peptide 1 (human)
T20 peptide: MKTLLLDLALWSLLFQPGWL
Experimental: as §1

GUCY2C_ECD Peptide 58 = target: T21, GUCY2C_ECD Peptide 58 (human)
T21 peptide: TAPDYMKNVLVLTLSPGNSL
Experimental: as §1

GUCY2C_ECD Peptide 20 = target: T22, GUCY2C_ECD Peptide 20 (human)
T22 peptide: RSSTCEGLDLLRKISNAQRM
Experimental: as §1

GUCY2C_ECD Peptide 62 = target: T23, GUCY2C_ECD Peptide 62 (human)
T23 peptide: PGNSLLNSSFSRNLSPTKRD
Experimental: as §1

GUCY2C_ECD Peptide 67 = target: T24, GUCY2C_ECD Peptide 67 (human)
T24 peptide: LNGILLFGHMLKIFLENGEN
Experimental: as §1

GUCY2C_ECD Peptide 73 = target: T25, GUCY2C_ECD Peptide 73 (human)
T25 peptide: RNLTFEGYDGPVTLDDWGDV
Experimental: as §1

GUCY2C_ECD Peptide 82 = target: T26, GUCY2C_ECD Peptide 82 (human)
T26 peptide: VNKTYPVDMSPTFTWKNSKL
Experimental: as §1

GUCY2C_ECD Peptide 80 = target: T27, GUCY2C_ECD Peptide 80 (human)
T27 peptide: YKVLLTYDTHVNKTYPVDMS
Experimental: as §1

GUCY2C_ECD Peptide 23 = target: T28, GUCY2C_ECD Peptide 23 (human)
T28 peptide: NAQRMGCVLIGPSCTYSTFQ
Experimental: as §1

GUCY2C_ECD Peptide 76 = target: T29, GUCY2C_ECD Peptide 76 (human)
T29 peptide: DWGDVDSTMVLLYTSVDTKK
Experimental: as §1

GUCY2C_ECD Peptide 37 = target: T30, GUCY2C_ECD Peptide 37 (human)
T30 peptide: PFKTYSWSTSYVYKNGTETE
Experimental: as §1

GUCY2C_ECD Peptide 84 = target: T31, GUCY2C_ECD Peptide 84 (human)
T31 peptide: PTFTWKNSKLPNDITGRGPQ
Experimental: as §1

GUCY2C_ECD Peptide 41 = target: T32, GUCY2C_ECD Peptide 41 (human)
T32 peptide: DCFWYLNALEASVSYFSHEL
Experimental: as §1

GUCY2C_ECD Peptide 79 = target: T33, GUCY2C_ECD Peptide 79 (human)
T33 peptide: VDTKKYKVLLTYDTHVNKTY
Experimental: as §1

GUCY2C_ECD Peptide 34 = target: T34, GUCY2C_ECD Peptide 34 (human)
T34 peptide: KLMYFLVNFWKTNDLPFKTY
Experimental: as §1

GUCY2C_ECD Peptide 43 = target: T35, GUCY2C_ECD Peptide 43 (human)
T35 peptide: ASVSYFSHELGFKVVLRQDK
Experimental: as §1

GUCY2C_ECD Peptide 19 = target: T36, GUCY2C_ECD Peptide 19 (human)
T36 construct: also called GUCY2c peptide 19; GUCY2c-ECD peptide number 19
T36 peptide: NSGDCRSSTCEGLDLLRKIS
Experimental: as §1

B1: GUCY2C-1608 (bispecific antibody)
chain 1: DIQLTQSPSSLSASVGDRVTITCRASESVDYYGSSLLQWYQQKPGKAPKLLIYAASKLASGVPSRFSGSGSGTDFTLTISSLQPEDFATYYCQQTRKAYTFGQGTKLEIKGGGSGGGGEVQLVESGGGLVQPGGSLRLSCAASGFTFSDYYMTWVRQAPGKGLEWVAFIRNQARGYTSDHNPSVKGRFTISRDNAKNSLYLQMNSLRAEDTAVYYCARDRPSYYVLDYWGQGTTVTVSSGCPPCPAPEAAGAPSVFLFPPKPKDTLMISRTPEVTCVVVDVSHEDPEVKFNWYVDGVEVHNAKTKPREEQYNSTYRVVSVLTVLHQDWLNGKEYKCKVSNKALPAPIEKTISKAKGQPREPQVCTLPPSREEMTKNQVSLWCLVKGFYPSDIAVEWESNGQPENNYKTTPPVLDSDGSFFLYSKLTVDKSRWQQGNVFSCSVMHEALHNHYTQKSLSLSPG
chain 2: DIQMTQSPSSLSASVGDRVTITCTSSQSLFNVRSQKNYLAWYQQKPGKAPKLLIYWASTRESGVPSRFSGSGSGTDFTLTISSLQPEDFATYYCKQSYDLFTFGGGTKVEIKGGGGSGGGGEVQLVESGGGLVQPGGSLRLSCAASGFTFSSYWMHWVRQAPGKGLEWIGEIKPSNELTNVHEKFKDRFTISVDKAKNSAYLQMNSLRAEDTAVYYCTRTITTTEGYWFFDVWGQGTLVTVSSGCPPCPAPEAAGAPSVFLFPPKPKDTLMISRTPEVTCVVVDVSHEDPEVKFNWYVDGVEVHNAKTKPREEQYNSTYRVVSVLTVLHQDWLNGKEYKCKVSNKALPAPIEKTISKAKGQPREPQVYTLPPCREEMTKNQVSLSCAVKGFYPSDIAVEWESNGQPENNYKTTPPVLDSDGSFFLVSKLTVDKSRWQQGNVFSCSVMHEALHNHYTQKSLSLSPG
notes: also called GUCY2c CD3 bispecific
With B1 the “DELFIA TRF” value (GUCY2C_ECD Peptide 14) was 97, the “DELFIA TRF” value (GUCY2C_ECD Peptide 63) was 110 and the “DELFIA TRF” value (GUCY2C_ECD Peptide 69) was 100. For the same binder, the “DELFIA TRF” value (GUCY2C_ECD Peptide 71) was 105, the “DELFIA TRF” value (GUCY2C_ECD Peptide 16) was 105 and the “DELFIA TRF” value (GUCY2C_ECD Peptide 3) was 97.8. For the same binder, the “DELFIA TRF” value (GUCY2C_ECD Peptide 21) was 81, the “DELFIA TRF” value (GUCY2C_ECD Peptide 42) was 96.5 and the “DELFIA TRF” value (GUCY2C_ECD Peptide 83) was 85.8. The “DELFIA TRF” value (GUCY2C_ECD Peptide 11) was 101, the “DELFIA TRF” value (GUCY2C_ECD Peptide 13) was 102 and the “DELFIA TRF” value (GUCY2C_ECD Peptide 75) was 88.2. The “DELFIA TRF” value (GUCY2C_ECD Peptide 31) was 90.2, the “DELFIA TRF” value (GUCY2C_ECD Peptide 10) was 105 and the “DELFIA TRF” value (GUCY2C_ECD Peptide 9) was 145. For the same binder, the “DELFIA TRF” value (GUCY2C_ECD Peptide 49) was 129, the “DELFIA TRF” value (GUCY2C_ECD Peptide 60) was 150 and the “DELFIA TRF” value (GUCY2C_ECD Peptide 17) was 112. The “DELFIA TRF” value (GUCY2C_ECD Peptide 38) was 110, the “DELFIA TRF” value (GUCY2C_ECD Peptide 1) was 166 and the “DELFIA TRF” value (GUCY2C_ECD Peptide 58) was 98.5. The “DELFIA TRF” value (GUCY2C_ECD Peptide 20) was 3210, the “DELFIA TRF” value (GUCY2C_ECD Peptide 62) was 91.2 and the “DELFIA TRF” value (GUCY2C_ECD Peptide 67) was 93.2. The “DELFIA TRF” value (GUCY2C_ECD Peptide 73) was 116, the “DELFIA TRF” value (GUCY2C_ECD Peptide 82) was 99.2 and the “DELFIA TRF” value (GUCY2C_ECD Peptide 80) was 1470. The “DELFIA TRF” value (GUCY2C_ECD Peptide 23) was 96.2, the “DELFIA TRF” value (GUCY2C_ECD Peptide 76) was 102 and the “DELFIA TRF” value (GUCY2C_ECD Peptide 37) was 107. For the same binder, the “DELFIA TRF” value (GUCY2C_ECD Peptide 84) was 133, the “DELFIA TRF” value (GUCY2C_ECD Peptide 41) was 161 and the “DELFIA TRF” value (GUCY2C_ECD Peptide 79) was 130. For the same binder, the “DELFIA TRF” value (GUCY2C_ECD Peptide 34) was 99, the “DELFIA TRF” value (GUCY2C_ECD Peptide 43) was 104 and the “DELFIA TRF” value (GUCY2C_ECD Peptide 19) was 19200.
